The record followed here is PMC12329599, “Acetylation of microtubule-binding PinX1 orchestrates ribosome biogenesis to nutrient starvation via the RNA polymerase I preinitiation complex” (The Journal of Biological Chemistry, 2025).

For the assay, the target named is T1, Strep2-POLR1G (human, UniProt O15446 1-510).
T1 construct: POLR1G (RNA polymerase I subunit G), human, cloned into pET45a-Strep2; also called Strep2-tagged POLR1G; source: TSsetta (DE3) bacteria, purified (anti-Strep2 tag agarose beads)
As to the kind of experiment: pull-down; GST-PinX1 proteins on glutathione beads incubated with purified Strep2- or HA-tagged proteins in BC200 buffer (200 mM NaCl, 20 mM Tris-HCl pH 7.9, 20% glycerol, 0.2% NP-40) at 4 °C overnight; washed with BC500, BC200 or BC100; Western blot. The note with it: both partners purified.

T1 sequence (O15446 whole entry): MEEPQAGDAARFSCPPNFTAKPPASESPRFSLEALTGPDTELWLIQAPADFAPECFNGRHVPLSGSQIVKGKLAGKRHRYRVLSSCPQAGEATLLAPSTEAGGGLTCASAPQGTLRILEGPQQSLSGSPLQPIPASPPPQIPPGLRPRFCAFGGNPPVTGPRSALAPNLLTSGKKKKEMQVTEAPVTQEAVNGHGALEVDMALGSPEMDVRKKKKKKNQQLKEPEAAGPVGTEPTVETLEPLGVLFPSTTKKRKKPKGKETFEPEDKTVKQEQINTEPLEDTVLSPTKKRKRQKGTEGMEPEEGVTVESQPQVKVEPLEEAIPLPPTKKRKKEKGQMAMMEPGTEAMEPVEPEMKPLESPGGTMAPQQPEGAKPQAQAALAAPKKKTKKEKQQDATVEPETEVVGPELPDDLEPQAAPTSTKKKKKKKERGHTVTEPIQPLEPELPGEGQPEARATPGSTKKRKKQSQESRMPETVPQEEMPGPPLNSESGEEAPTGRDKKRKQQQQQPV

B1: GST-PinX1 central section (aa 70–253) (domain or fragment, human, UniProt Q96BK5 70-253, looked up)
chain: TINNEDNWIAHQDDFNQLLAELNTCHGQETTDSSDKKEKKSFSLEEKSKISKNRVHYMKFTKGKDLSSRSKTDLDCIFGKRQSKKTPEGDASPSTPEENETTTTSAFTIQEYFAKRMAALKNKPQVPVPGSDISETQVERKRGKKRNKEATGKDVESYLQPKAKRHTEGKPERAEAQERVAKKK
notes: the truncations were of GST-PinX1; also called GST-PinX1 truncation; source: TSsetta (DE3) bacteria, IPTG-induced, purified (Glutathione-Sepharose 4B)
Take B1: the binding result is “binds”.

B2: GST-PinX1 full-length (natural protein, human, UniProt Q96BK5 1-328, looked up)
chain: MSMLAERRRKQKWAVDPQNTAWSNDDSKFGQRMLEKMGWSKGKGLGAQEQGATDHIKVQVKNNHLGLGATINNEDNWIAHQDDFNQLLAELNTCHGQETTDSSDKKEKKSFSLEEKSKISKNRVHYMKFTKGKDLSSRSKTDLDCIFGKRQSKKTPEGDASPSTPEENETTTTSAFTIQEYFAKRMAALKNKPQVPVPGSDISETQVERKRGKKRNKEATGKDVESYLQPKAKRHTEGKPERAEAQERVAKKKSAPAEEQLRGPCWDQSSKASAQDAGDHVQPPEGRDFTLKPKKRRGKKKLQKPVEIAEDATLEETLVKKKKKKDSK
notes: PinX1, human, full length, cloned into pGEX-4T-3; also called GST-PinX1 FL; full length GST-PinX1; source: TSsetta (DE3) bacteria, IPTG-induced, purified (Glutathione-Sepharose 4B)
Take B2: the binding result was “binds”.
